Source: IntAct's records for PubMed 11752373

B1: Cryptochrome-1 (Arabidopsis thaliana (Mouse-ear cress)), Q43125 (parent)
chain: MSGSVSGCGSGGCSIVWFRRDLRVEDNPALAAAVRAGPVIALFVWAPEEEGHYHPGRVSRWWLKNSLAQLDSSLRSLGTCLITKRSTDSVASLLDVVKSTGASQIFFNHLYDPLSLVRDHRAKDVLTAQGIAVRSFNADLLYEPWEVTDELGRPFSMFAAFWERCLSMPYDPESPLLPPKKIISGDVSKCVADPLVFEDDSEKGSNALLARAWSPGWSNGDKALTTFINGPLLEYSKNRRKADSATTSFLSPHLHFGEVSVRKVFHLVRIKQVAWANEGNEAGEESVNLFLKSIGLREYSRYISFNHPYSHERPLLGHLKFFPWAVDENYFKAWRQGRTGYPLVDAGMRELWATGWLHDRIRVVVSSFFVKVLQLPWRWGMKYFWDTLLDADLESDALGWQYITGTLPDSREFDRIDNPQFEGYKFDPNGEYVRRWLPELSRLPTDWIHHPWNAPESVLQAAGIELGSNYPLPIVGLDEAKARLHEALSQMWQLEAASRAAIENGSEEGLGDSAEVEEAPIEFPRDITMEETEPTRLNPNRRYEDQMVPSITSSLIRPEEDEESSLNLRNSVGDSRAEVPRNMVNTNQAQQRRAEPASNQVTAMIPEFNIRIVAESTEDSTAESSSSGRRERSGGIVPEWSPGYSEQFPSEENGIGGGSTTSSYLQNHHEILNWRRLSQTG
partner: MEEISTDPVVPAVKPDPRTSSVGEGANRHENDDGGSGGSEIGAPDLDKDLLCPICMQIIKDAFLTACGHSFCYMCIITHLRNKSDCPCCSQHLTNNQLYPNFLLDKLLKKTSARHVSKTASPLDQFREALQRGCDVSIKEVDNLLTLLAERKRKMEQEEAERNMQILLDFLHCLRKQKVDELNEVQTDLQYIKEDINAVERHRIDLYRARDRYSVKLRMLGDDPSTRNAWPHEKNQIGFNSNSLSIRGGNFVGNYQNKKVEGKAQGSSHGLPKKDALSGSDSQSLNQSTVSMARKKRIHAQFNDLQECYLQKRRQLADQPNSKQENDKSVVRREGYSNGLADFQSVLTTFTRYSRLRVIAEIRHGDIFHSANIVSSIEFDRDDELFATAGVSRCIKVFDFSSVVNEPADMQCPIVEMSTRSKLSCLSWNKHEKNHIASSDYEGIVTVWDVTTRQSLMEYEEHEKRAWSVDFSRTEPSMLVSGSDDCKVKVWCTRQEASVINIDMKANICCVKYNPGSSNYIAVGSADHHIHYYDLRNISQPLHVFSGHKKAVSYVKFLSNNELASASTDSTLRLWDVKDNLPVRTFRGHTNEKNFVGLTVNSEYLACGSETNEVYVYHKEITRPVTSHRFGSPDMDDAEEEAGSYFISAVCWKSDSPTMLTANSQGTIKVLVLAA
B2: E3 ubiquitin-protein ligase COP1 (Arabidopsis thaliana (Mouse-ear cress)), P43254 (parent)
chain: B1 partner

Variants of: B1
Settings: with cop1_arath COP1, P43254

| Variant | effect of a mutation on the interaction |
| --- | --- |
| E559K | disrupting interaction |
| R576K | decreasing interaction |
| E531K | decreasing interaction |
| R581K | decreasing interaction |
| E515K | decreasing interaction |
| R611K | decreasing interaction |
| P549L | decreasing interaction |

Variants of: B2
Settings: with cry1_arath CRY1, Q43125

| Variant | effect of a mutation on the interaction |
| --- | --- |
| K550E | decreasing interaction |
| W467A | decreasing interaction |
| G524E | decreasing interaction |
| R465E | decreasing interaction |
| E592R | decreasing interaction |
| K422E | decreasing interaction |
